The results in this text go back to patent US9993566B2, “SEZ6 modulators and methods of use” (AbbVie Stemcentrx LLC, priority 2013, dated 2018).

The target of assay [1] is T1, human recombinant SEZ6-His (Homo sapiens, UniProt Q53EL9).
T1 construct: The cDNA fragment encoding the ECD of SEZ6 was amplified from the hSEZ6 cDNA clone; IgK signal peptide (N, cleaved yes); made in house; host or cells: HEK-293T and/or CHO-S
The assay is described as follows: Affinity by bio-layer interferometry (ForteBio RED) or surface plasmon resonance (Biacore 2000). The format is binding. Particulars: surface plasmon resonance. The procedure: Various methods were used to analyze the binding and immunochemical characteristics of selected SEZ6 modulators generated as set forth above. Specifically, a number of the antibody modulators were characterized as to affinity, binning, and cross reactivity with regard to human, cynomolgus, rat and mouse SEZ6 antigen along with SEZ6L and SEZ6L2 proteins by art-recognized methods including flow cytometry. Affinities and kinetic constants kon and koff of the selected modulators were measured using bio-layer interferometry analysis on a ForteBio RED (ForteBio, Inc.) or surface plasmon resonance using a Biacore 2000 each according to the manufacturer's instructions.
To verify the cross reactivity data above for rat SEZ6 and to determine the affinity and kinetic constants kon and koff of the selected effectors, either bio-layer interferometry analysis on a ForteBio RED (ForteBio, Inc.) or surface plasmon resonance on a Biacore 2000 (GE Healthcare) were conducted. Affinities were determined to both human recombinant SEZ6-His and rat recombinant SEZ6-His generated in Example 5.
Binding characteristics of the following humanized constructs from Example 8, hSC17.16, hSC17.17, hSC17.24, hSC17.28, hSC17.34 and hSC17.46, were analyzed in order to determine whether the CDR grafting process had appreciably altered their binding characteristics. The humanized constructs (CDR grafted) were compared with “traditional” chimeric antibodies comprising the murine parent (or donor) heavy and light chain variable domains and a human constant region substantially equivalent to that used in the humanized constructs. With these constructs surface plasmon resonance was conducted using a Biacore 2000 (GE Healthcare) to identify any subtle changes in rate constants brought about by the humanization process.

The subject of a further assay is rat SEZ6. Nature of the assay: Flow cytometry cross reactivity, RIN-m5F cells. It is filed as binding. Particulars: 5 μg/mL antibody. How it is done:
(§1) In this regard flow cytometry was performed using a FACSCanto II as per the manufacturer's instructions in order to confirm that selected SC17 antibody modulators can immunospecifically associate with human SEZ6 and to determine whether the same modulators cross-react with cynomolgus, rat and/or murine SEZ6 in addition to SEZ6L and SEZ6L2. More particularly modulators were tested for cross reactivity to murine SEZ6 and rat SEZ6 by flow cytometry against Neuro2a (ATCC Cat # CCL131), and RIN-m5F (ATCC cat # CRL-11605) cell lines which express mouse SEZ6 and rat SEZ6, respectively. For examining cross reactivity to cynomolgus SEZ6, yeast displaying the extracellular domain of cynomolgus SEZ6 (Boder et al, 1997) were used for flow cytometry analysis.
(§2) Briefly 1×10^5 cells per well of Neuro2a, RIN-5mF, or yeast displaying cynomolgus SEZ6 cells were incubated for 30 minutes with 50 μL PBS (2% FCS) buffer with 5 μg/mL antibody. Cells were washed twice with the same buffer and then incubated with 50 μL per sample DyLight 649 labeled goat-anti-mouse IgG, Fc fragment specific secondary diluted 1:200 in PBS buffer. After incubating for 15 minutes cells were washed twice with the PBS buffer and re-suspended in the same with DAPI for flow cytometry analysis of Neuro2a and Rin-m5F or buffer without DAPI for flow cytometric analysis of yeast cells with cSEZ6.

Another assay addresses T2, mouse SEZ6 (Mus musculus, UniProt Q7TSK2).
T2 construct: Neuro2a (ATCC Cat # CCL131), and RIN-m5F (ATCC cat # CRL-11605) cell lines which express mouse SEZ6 and rat SEZ6; host or cells: Neuro2a
Nature of the assay: Flow cytometry cross reactivity, Neuro2a cells. It is filed as binding. As to conditions: 5 μg/mL antibody. How it is done:
as §1, §2

In the next assay the test system is cynomolgus SEZ6. Nature of the assay: Flow cytometry cross reactivity, yeast displaying extracellular domain of cynomolgus SEZ6. It is filed as binding. Particulars: 5 μg/mL antibody. The procedure:
as §1, §2

For a further assay, the target named is T3, SEZ6 ECD (Homo sapiens, UniProt Q53EL9).
T3 construct: SEZ6 extracellular domain (amino acids 1-904); expressed in transfected cells; host or cells: yeast (surface display, Cochran et al. protocol)
The assay is described as follows: Fine epitope mapping (phage display peptide library or yeast-displayed SEZ6 ECD mutants). It is filed as binding. As to conditions: epitope conformational (discontinuous) or linear. How it is done:
Epitopes were classified either as conformational (i.e. discontinuous) or linear. Yeast displaying the SEZ6 ECD construct was heat treated for 30 minutes at 80° C. in order to denature the antigen, washed twice in ice-cold PBSA and then subjected to the same staining protocol and flow cytometry analysis as described above. Antibodies that bound to both the denatured and native yeast were classified as binding to a linear epitope, whereas antibodies that bound native yeast but not denatured yeast were classified as conformationally specific.
Fine epitope mapping was further performed on selected antibodies to determine the specific amino acids to which they bound. Antibodies that bound to a linear epitope were mapped using the Ph.D.-12 phage display peptide library kit (New England Biolabs E8110S). The antibody selected for epitope mapping was coated onto a Nunc MaxiSorp tube (Nunc) at 50 μg/mL in 3 mL 0.1 M sodium bicarbonate solution, pH 8 and incubated overnight. The tube was blocked with 3% BSA solution in bicarbonate solution. Then, 10^11 input phage in PBS+0.1% Tween-20 was allowed to bind, followed by ten consecutive washes with 0.1% Tween-20 to wash away non-binding phage. Remaining phage were eluted with 1 mL 0.2 M glycine for 10 minutes at room temperature with gentle agitation, followed by neutralization with 150 μL 1 M Tris-HCl pH 9. Eluted phage were amplified and panned again with 10^11 input phage, using 0.5% Tween-20 during the wash steps to increase selection stringency. DNA from 24 plaques of the eluted phage from the second round was isolated using the Qiaprep M13 Spin kit (Qiagen) and sequenced. Binding of clonal phage was confirmed using an ELISA assay, where the mapped antibody or a control antibody was coated onto an ELISA plate, blocked, and exposed to each clone phage. Phage binding was detected using horseradish peroxidase conjugated anti-M13 antibody (GE Healthcare), and the 1-Step Turbo TMB ELISA solution (Pierce). Phage peptide sequences from specifically binding phage were aligned using Vector NTI (Life Technologies) against the antigen ECD peptide sequence to determine the epitope of binding.
Selected antibodies that bound to a discontinuous epitope were mapped using the technique described by Chao et al. (2007). Libraries of SEZ6 ECD mutants were generated with error prone PCR using nucleotide analogues 8-oxo-2′deoxyguanosine-5′-triphosphate and 2′-deoxy-p-nucleoside-5′triphosphate (both from TriLink Bio) for a target mutagenesis rate of one amino acid mutation per clone. These were transformed into a yeast display format. Using the technique described above for domain-level mapping, the library was stained for c-myc and antibody binding at 50 nM. […] These clones were re-grown, and subjected to another round of FACS sorting for loss of binding to the target antibody. Using the Zymoprep Yeast Plasmid Miniprep kit (Zymo Research), individual ECD clones were isolated and sequenced. Where necessary, mutations were reformatted as single-mutant ECD clones using the Quikchange site directed mutagenesis kit (Agilent).
Individual ECD clones were next screened to determine whether loss of binding was due to a mutation in the epitope, or a mutation that caused misfolding. Mutations that involved cysteine, proline, and stop codons were automatically discarded due to the high likelihood of a misfolding mutation. Remaining ECD clones were then screened for binding to a non-competing, conformationally specific antibody. ECD clones that lost binding to non-competing, conformationally specific antibodies were concluded to contain misfolding mutations, whereas ECD clones that retained equivalent binding as wild type SEZ6 ECD were concluded to be properly folded. Mutations in the ECD clones in the latter group were concluded to be in the epitope. […]

The next assay relates to LU100, a SCLC tumor. Nature of the assay: Fab-saporin cytotoxicity in NTX tumor cells. The format is cell-based, human. As to conditions: 50 and 500 pM antibody with Fab-saporin, seven days. The procedure: To corroborate the results of Example 14 and determine whether SEZ6 modulators can mediate toxin internalization and cell killing of human tumor cells (as opposed to engineered cells), mouse lineage-depleted NTX cells were plated and subsequently exposed to anti-SEZ6 antibodies and Fab-saporin.
NTX tumors were dissociated into a single cell suspension and plated on Primaria™ plates (BD Biosciences) in growth factor supplemented serum free media as is known in the art. After culturing the cells for one day at 37° C./5% CO2/5% O2, they were treated with a control (IgG1, IgG2a or IgG2b) or a murine SEZ6 modulator and Fab-saporin as described in Example 14. After seven days, the modulator-mediated saporin cytotoxicity was assessed by quantifying the remaining number of live cells using Cell Titer Glo.

T2 sequence (Q7TSK2 20-991): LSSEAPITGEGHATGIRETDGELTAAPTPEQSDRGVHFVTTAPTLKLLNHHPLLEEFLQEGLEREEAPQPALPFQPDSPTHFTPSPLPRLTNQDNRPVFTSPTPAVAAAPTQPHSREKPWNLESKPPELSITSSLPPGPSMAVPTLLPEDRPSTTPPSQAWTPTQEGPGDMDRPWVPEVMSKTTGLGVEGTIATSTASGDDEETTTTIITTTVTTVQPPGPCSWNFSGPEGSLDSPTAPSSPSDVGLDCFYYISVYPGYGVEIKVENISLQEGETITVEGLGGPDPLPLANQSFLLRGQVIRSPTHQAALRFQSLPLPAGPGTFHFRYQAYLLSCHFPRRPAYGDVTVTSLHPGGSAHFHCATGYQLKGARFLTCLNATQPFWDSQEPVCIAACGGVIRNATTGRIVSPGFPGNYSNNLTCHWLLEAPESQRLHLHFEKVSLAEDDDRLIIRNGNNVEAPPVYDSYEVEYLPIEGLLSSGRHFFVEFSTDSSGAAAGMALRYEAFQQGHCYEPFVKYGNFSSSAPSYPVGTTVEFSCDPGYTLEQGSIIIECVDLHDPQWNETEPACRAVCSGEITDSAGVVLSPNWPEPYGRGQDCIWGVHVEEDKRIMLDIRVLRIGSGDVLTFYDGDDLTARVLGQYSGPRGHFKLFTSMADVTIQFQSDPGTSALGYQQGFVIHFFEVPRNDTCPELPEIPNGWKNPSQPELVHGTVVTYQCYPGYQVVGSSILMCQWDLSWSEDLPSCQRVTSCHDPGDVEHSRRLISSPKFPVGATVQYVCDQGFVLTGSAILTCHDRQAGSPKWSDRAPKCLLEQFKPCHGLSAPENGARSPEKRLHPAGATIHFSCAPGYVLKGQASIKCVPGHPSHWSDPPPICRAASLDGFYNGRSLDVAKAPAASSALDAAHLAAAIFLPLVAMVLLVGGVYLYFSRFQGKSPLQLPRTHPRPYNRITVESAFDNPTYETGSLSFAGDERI
Chain of rat SEZ6 (as listed by the source): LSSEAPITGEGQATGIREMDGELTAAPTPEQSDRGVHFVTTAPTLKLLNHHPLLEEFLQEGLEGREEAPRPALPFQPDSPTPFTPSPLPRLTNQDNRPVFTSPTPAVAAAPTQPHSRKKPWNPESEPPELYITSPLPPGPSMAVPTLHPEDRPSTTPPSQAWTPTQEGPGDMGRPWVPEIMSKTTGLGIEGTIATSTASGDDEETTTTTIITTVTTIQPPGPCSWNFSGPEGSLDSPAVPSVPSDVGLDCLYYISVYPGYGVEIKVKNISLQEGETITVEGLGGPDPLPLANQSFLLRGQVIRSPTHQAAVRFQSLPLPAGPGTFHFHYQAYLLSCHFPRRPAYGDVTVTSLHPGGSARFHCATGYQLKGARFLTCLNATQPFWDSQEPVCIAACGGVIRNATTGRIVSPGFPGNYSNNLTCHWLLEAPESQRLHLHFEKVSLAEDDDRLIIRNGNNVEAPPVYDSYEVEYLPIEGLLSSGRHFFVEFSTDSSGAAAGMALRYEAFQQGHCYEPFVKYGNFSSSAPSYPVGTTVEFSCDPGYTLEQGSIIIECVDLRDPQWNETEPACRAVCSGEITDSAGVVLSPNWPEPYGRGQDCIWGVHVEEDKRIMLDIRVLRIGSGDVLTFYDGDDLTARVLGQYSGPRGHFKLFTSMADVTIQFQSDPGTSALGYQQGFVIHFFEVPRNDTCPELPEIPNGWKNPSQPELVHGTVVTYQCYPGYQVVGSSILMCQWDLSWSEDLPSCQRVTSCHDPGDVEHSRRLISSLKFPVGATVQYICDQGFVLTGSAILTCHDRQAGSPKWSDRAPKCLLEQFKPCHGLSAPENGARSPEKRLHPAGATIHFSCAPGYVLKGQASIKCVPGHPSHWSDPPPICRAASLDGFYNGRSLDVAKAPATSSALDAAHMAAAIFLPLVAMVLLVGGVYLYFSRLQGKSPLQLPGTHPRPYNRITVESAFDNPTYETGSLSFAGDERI

B1: hSC17.46: humanized (CDR grafted) anti-SEZ6 antibody derived from SC17.46 (antibody, V domains shown)
VH: QVQLVQSGAEVKKPGASVKVSCKASGYTFTSYWINWVRQAPGQGLEWIGNIFPDTTTTNYNEKFKGRVTLTRDTSISTAYMELSRLRSDDTAVYYCAREYYDGTYDAMDYWGQGTLVTVSS
VL: AIQMTQSPSSLSASVGDRVTITCKASQSVNNDVAWYQQKPGKAPKLLIYYASNRYTGVPSRFSGSGSGTDFTLTISSLQPEDFATYFCQQDYSSPRTFGQGTKLEIK
modifications: Humanized hSC17.46 VH; Humanized hSC17.46 VL
As for B1, in assay [1], the “binding affinity compared with corresponding murine or chimeric antibody” value is on record as “equivalent or better than the corresponding murine antibodies”.

B2: SC17.42: murine anti-SEZ6 antibody (antibody, V domains shown)
VH: DVKLVESGGGLVRPGGSLKLSCAASGFTFSRYTMSWVRQTPEKRLEWAATINSGGSNTYYPDSVKGRFTISRDNAKNTLFLQMSSLKSEDTAMYYCTNGNHWGQGTTLTVSS
VL: ENVLTQSPAIMSASPGEKVTMTCSASSSVNYMYWYQQKSSTSPKLWIYDTSKLTSGVPGRFSGSGSGNSYSLTISNMEAEDVATYYCFQGSGYPLTFGSGTKLEIK
modifications: Murine SC17.42 VH; Murine SC17.42 VL
notes: murine anti-SEZ6 antibody
Regarding B2, the “cross reactivity to rat SEZ6” value in the assay on rat SEZ6 was “cross reactive”. For the same molecule, the “cross reactivity to murine SEZ6” value with mouse SEZ6 is recorded as “cross reactive”.

B3: SC17.24: murine anti-SEZ6 antibody; duplicate sequence of SC17.2 (antibody, V domains shown)
VH: QVQLQQSDAELVKPGASVKISCKVSGYTFTDHTIHWMKQRPEQGLEWIGYIYPRDGSTKYNEEFKGKATLTADKSSSTAYMQLNSLTSEDSAVYFCARSYSNYFDYWGQGTTLTVSS
VL: DIVMSQSPSSLAVSVGEKVTMSCKSSQSLLYSSNQKSYLAWYQQKPGQSPKLLIYWASTRESGVPDRFTGSGSGTDFTLTISSVQAEDLAVYYCKQSYNLRTFGGGTKLEIK
modifications: Murine SC17.2 VH; Murine SC17.2 VL
For B3, the “cross reactivity to cynomolgus SEZ6” value in the assay on cynomolgus SEZ6 is “cross reactive”. Also, the Discontinuous result in the assay with SEZ6 ECD is on record as “No”. Moreover, the “cross reactivity to murine SEZ6” value with mouse SEZ6 is “cross reactive”.

B4: SC17.34: murine anti-SEZ6 antibody (antibody, V domains shown)
VH: EVQLQQSGPELVKPGSSVKISCKASGYTFTDYNMDWVKQSHGKRLEWIGYIYPDNGGAGYNQKFKGKATLTVDKSSSTAYMELRSLTSEDSAVYYCSRSITTAWFAYWGQGTLVTVSA
VL: DIKMTQSPSSMYASLGERVTITCKASQDINSYLSWFQQKPGKSPKTLIYRANRLVDGVPSRFSGSGSGQDYSLTISSLEYEDMGIYYCLQYDEFPPTFGGGTKLEIK
modifications: Murine SC17.34 VH; Murine SC17.34 VL
notes: murine anti-SEZ6 antibody
Consider B4, for which the “cross reactivity to cynomolgus SEZ6” value with cynomolgus SEZ6 is “cross reactive”. Besides, the Discontinuous result with SEZ6 ECD is “Yes”. Besides, the “number of tumor cells, LU100” value in the assay with LU100, a SCLC tumor was “reduction of tumor cells”. The “cross reactivity to rat SEZ6” value with rat SEZ6 was “cross reactive”.

B5: hSC17.28: humanized (CDR grafted) anti-SEZ6 antibody derived from SC17.28 (antibody, V domains shown)
VH: QVQLVQSGAEVKKPGASVKVSCKASGYTFTRSYIHWVRQAPGQGLEWMGYISSGSGGTTYNQKFKGRVTSTRDTSISTAYMELSRLRSDDTAVYYCARGGVRYFDVWGQGTTVTVSS
VL: EIVLTQSPDFQSVTPKEKVTITCRASQSIGTSIHWYQQKPDQSPKLLIKYASESISGVPSRFSGSGSGTDFTLTINSLEAEDAATYYCQQSNSWPLTFGQGTKLEIK
modifications: Humanized hSC17.28 VH; Humanized hSC17.28 VL
Regarding B5, in assay [1], the “binding affinity compared with corresponding murine or chimeric antibody” value is given as “equivalent or better than the corresponding murine antibodies”.

B6: hSC17.34: humanized (CDR grafted) anti-SEZ6 antibody derived from SC17.34 (antibody, V domains shown)
VH: QVQLVQSGAEVKKPGASVKVSCKASGYTFTDYNMDWVRQAPGQRLEWIGYIYPDNGGAGYNQKFKGRVTITVDTSASTAYMELSSLRSEDTAVYYCSRSITTAWFAYWGQGTLVTVSS
VL: DIQMTQSPSSLSASVGDRVTITCKASQDINSYLSWFQQKPGKAPKSLIYRANRLVDGVPSRFSGSGSGTDYTLTISSLQPEDFATYYCLQYDEFPPTFGQGTKLEIK
modifications: Humanized hSC17.34 VL
For B6, the “binding affinity compared with corresponding murine or chimeric antibody” value in assay [1] was “equivalent or better than the corresponding murine antibodies”.
